According to article PMC6907008:

Legend:
[1] = target: T1, HisZea (Lmo2686) (Listeria monocytogenes EGD-e) (UniProt Q8Y3Z3); assay: EMSA; details: EMSA: 50 mM Tris pH 8.0, 300 mM NaCl, 10% glycerol, 50 ug/mL BSA, 1 ug yeast tRNA, 20 min room temperature; pull-down: 25 mM Tris pH 8.0, 150 mM KCl, 5 mM …
T1 sequence: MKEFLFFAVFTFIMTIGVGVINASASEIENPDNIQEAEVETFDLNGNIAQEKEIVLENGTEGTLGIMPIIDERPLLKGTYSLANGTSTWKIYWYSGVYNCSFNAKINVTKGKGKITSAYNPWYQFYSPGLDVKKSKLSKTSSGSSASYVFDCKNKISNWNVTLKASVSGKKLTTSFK

[2] = target: T1, HisZea (Lmo2686) (Listeria monocytogenes EGD-e); assay: competition; details: EMSA: 50 mM Tris pH 8.0, 300 mM NaCl, 10% glycerol, 50 ug/mL BSA, 1 ug yeast tRNA, 20 min room temperature; pull-down: 25 mM Tris pH 8.0, 150 mM KCl, 5 mM …

Sequence: GGGUGUAAAAUGCAGCUUGAGUAAAAUGAAUGAGUGUGUUGUUUACCCCCAGAUUUAAUUCUGUGGUAUAUCGCGUAACCGGCGGCUGCUAUGGUGAUGGUAUAUGAAGGUAAACUGCCCUGAUUUGGUUUUACGUCACGUUUGUUUUAUAC [rli92]
- binding [1]: binds
- binding [2]: binds

Sequence: GGAGUAGAAAAGACCAAUGUGGGUUCUUUUUUAUUUUGUCUUAAUAACUCUAAACCACAGACAAAUAUAAAUUGGAAAUCAACGUAAUAAUCGUAUUUCCUAUUACAAUAAUCGAGAUAUUGUCACACCCUGAAAUAUAAUUGUAAUGCAAUUAACCUAUAGAUGAAAAACUGU [rli143]
- binding [1]: binds
- binding [2]: binds
